B1: Pistol ribozyme (parent)
chain: GGGUCGUUGUUCCAUAAUCGCGUGGAUAUGGCACGCAAGUUUCUACCGGGCACCGUAAAUGUCCGACUGGAGCCGUUCGGGCGGCUAUAAACAGACCUCAGGCCCGAAGCGUGGCGGCACCUGCCGCCGGUGGUAAAAAAGAUCGGAAGAGCACACGUCU

Variants of: B1
Experiment: aptazyme ON/OFF ratio, guanine; higher = stronger switching; co-transcriptional cleavage with and without guanine

Variant | aptazyme ON/OFF ratio
U8A G9A U10G U11G C12A C13A | 1.12
U8A G9A U10G U11G C12A C13G | 1.27
U8A G9A U10G U11G C12A C13U | 1.3
U8A G9A U10G U11G C12G | 1.26
U8A G9A U10G U11G C12U | 1.2
U8A G9A U10G U11G C12A | 1.09
U8A G9A U10G U11C C12U C13U | 1.15
U8A G9A U10G U11C C12U C13G | 1.16
U8A G9A U10G U11C C12U C13A | 1.21
U8A G9C U10A C12G | 1.17
U8A G9C U10A C12U | 1.14
U8A G9C U10A C12A | 1.27
U8A G9A U10A C12G | 1.17
U8A G9A U10A C12U | 1.24
U8A G9A U10A C12A | 1.43
U8A G9C U10A U11C C13A | 1.1
U8A G9C U10A U11C C13U | 1
U8A G9C U10A U11C C13G | 1.03
U8A G9A U10G C12U C13U | 1.41
U8A G9A U10G C12U C13A | 1.34
U8A G9A U10G C12U C13G | 1.17
U8A G9C U10A U11A C12G C13U | 1.3
U8A G9C U10A U11A C12G C13A | 1.14
U8A G9C U10A U11A C12G C13G | 1.23

Variant | aptazyme ON/OFF ratio
U8A G9A U10C U11C C12A C13A | 1.07
U8A G9A U10C U11C C12A C13G | 1.1
U8A G9A U10C U11C C12A C13U | 1.02
U8A G9A U10C U11G | 1.33
U8A G9A U10C U11A | 1.33
U8A G9A U10C U11C | 1.04
U8A G9C U10A U11A C13A | 1.16
U8A G9C U10A U11A C13U | 1.22
U8A G9C U10A U11A C13G | 1.08
U8A G9A U11C C12U C13G | 1.2
U8A G9A U11C C12U C13A | 1.23
U8A G9A U11C C12U C13U | 1.21
U8A G9A U10A C12U C13U | 1.33
U8A G9A U10A C12U C13A | 1.2
U8A G9A U10A C12U C13G | 1.24
U8A G9A C12U | 1.33
U8A G9A C12A | 1.34
U8A G9A C12G | 1.41
U8A G9A U10A U11C C12A | 1.09
U8A G9A U10A U11C C12U | 1.08
U8A G9A U10A U11C C12G | 1.13
U8A G9A U11A C12U C13U | 1.29
U8A G9A U11A C12U C13G | 1.18
U8A G9A U11A C12U C13A | 1.39

Variant | aptazyme ON/OFF ratio
U8A G9A U10A U11C C13A | 1.04
U8A G9A U10A U11C C13U | 1.05
U8A G9A U10A U11C C13G | 1.04
U8A G9A U10C U11G C12G C13U | 1.17
U8A G9A U10C U11G C12G C13A | 1.28
U8A G9A U10C U11G C12G C13G | 1.24
U8A G9C C12A C13A | 1.24
U8A G9C C12A C13G | 1.17
U8A G9C C12A C13U | 1.25
U8A G9A U11G C12U C13U | 1.51
U8A G9A U11G C12U C13A | 1.23
U8A G9A U11G C12U C13G | 1.18
U8A G9A C12A C13U | 1.19
U8A G9A C12A C13G | 1.1
U8A G9A C12A C13A | 1.3
U8A G9A U10G U11C | 1.05
U8A G9A U10G U11G | 1.07
U8A G9A U10G U11A | 1.02
U8A G9A U11A C12A C13U | 1.35
U8A G9A U11A C12A C13G | 1.25
U8A G9A U11A C12A C13A | 1.3
U8A G9A U10C U11G C12A | 1.03
U8A G9A U10C U11G C12U | 1.26
U8A G9A U10C U11G C12G | 1.38

Variant | aptazyme ON/OFF ratio
U8A G9C U10A U11C C12A C13G | 1.12
U8A G9C U10A U11C C12A C13A | 1.22
U8A G9C U10A U11C C12A C13U | 1.24
U8A G9A U10C U11A C12G C13U | 1.22
U8A G9A U10C U11A C12G C13A | 1.19
U8A G9A U10C U11A C12G C13G | 1.12
U8A G9A U10G U11C C12G C13A | 1.16
U8A G9A U10G U11C C12G C13G | 1.14
U8A G9A U10G U11C C12G C13U | 1.18
U8A G9C U10A U11C C12A | 1.21
U8A G9C U10A U11C C12G | 1.1
U8A G9C U10A U11C C12U | 1.06
U8A G9A U10A C13U | 1.2
U8A G9A U10A C13G | 1.1
U8A G9A U10A C13A | 1.26
U8A G9C U10A C12U C13A | 1.09
U8A G9C U10A C12U C13G | 1.04
U8A G9C U10A C12U C13U | 0.997
U8A G9A U11C C12G C13U | 1.22
U8A G9A U11C C12G C13A | 1.15
U8A G9A U11C C12G C13G | 1.15
U8A G9A U10C C12G C13U | 1.22
U8A G9A U10C C12G C13A | 1.19
U8A G9A U10C C12G C13G | 1.24

Variant | aptazyme ON/OFF ratio
U8A G9A U10A C12G C13A | 1.25
U8A G9A U10A C12G C13U | 1.42
U8A G9A U10A C12G C13G | 1.28
U8A G9C U10A U11G C13A | 1.11
U8A G9C U10A U11G C13G | 1.04
U8A G9A U10A U11C C12A C13A | 1.19
U8A G9A U10A U11C C12A C13U | 1.25
U8A G9A U10A U11C C12A C13G | 1.16
U8A G9A U10A C12A C13G | 1.17
U8A G9A U10A C12A C13A | 1.17
U8A G9A U10A C12A C13U | 1.39
U8A G9A U11G C12G C13G | 1.26
U8A G9A U11G C12G C13U | 1.27
U8A G9A U11G C12G C13A | 1.23
U8A G9A U11C C13A | 1.04
U8A G9A U11C C13G | 1.08
U8A G9A U11C C13U | 1.04
U8A G9C U10A U11A C12A C13A | 1.21
U8A G9C U10A U11A C12A C13G | 1.19
U8A G9C U10A U11A C12A C13U | 1.37
U8A G9A U10C U11A C12U C13U | 1.33
U8A G9A U10C U11A C12U C13A | 1.31
U8A G9A U10C U11A C12U C13G | 1.21
U8A G9A U10C C12A C13G | 1.13

Variant | aptazyme ON/OFF ratio
U8A G9A U10C C12A C13U | 1.18
U8A G9A U10C C12A C13A | 1.19
U8A G9A U10G C13U | 1.29
U8A G9A U10G C13A | 1.29
U8A G9A U10G C13G | 1.21
U8A G9A U10G U11G C12G C13U | 1.05
U8A G9A U10G U11G C12G C13G | 1.07
U8A G9A U10G U11G C12G C13A | 1.01
U8A G9A U11G | 1.44
U8A G9A U11A | 1.39
U8A G9A U11C | 1.05
U8A G9A U10A U11A C12G C13G | 1.18
U8A G9A U10A U11A C12G C13A | 1.29
U8A G9A U10A U11A C12G C13U | 1.16
U8A G9A U10G U11A C12G C13G | 1.19
U8A G9A U10G U11A C12G C13U | 1.12
U8A G9A U10G U11A C12G C13A | 1.24
U8A G9A U10A U11A C12U C13A | 1.37
U8A G9A U10A U11A C12U C13U | 1.21
U8A G9A U10A U11A C12U C13G | 1.1
U8A G9C U10A U11G C12U C13A | 1.17
U8A G9C U10A U11G C12U C13U | 1.14
U8A G9C U10A U11G C12U C13G | 1.18
U8A G9A U10A U11G C12U C13U | 1.4

Variant | aptazyme ON/OFF ratio
U8A G9A U10A U11G C12U C13A | 1.3
U8A G9A U10A U11G C12U C13G | 1.18
U8A G9A U10G U11A C12U | 1.06
U8A G9A U10G U11A C12A | 1.17
U8A G9A U10G U11A C12G | 1.24
U8A G9C U10A U11A C12G | 1.37
U8A G9C U10A U11A C12U | 1.24
U8A G9C U10A U11A C12A | 1.25
U8A G9A U11G C12A C13A | 1.14
U8A G9A U11G C12A C13G | 1.21
U8A G9A U11G C12A C13U | 1.09
U8A G9C U10A C13G | 1.06
U8A G9C U10A C13A | 1.15
U8A G9C U10A C13U | 1.13
U8A G9A U10C U11C C12G C13A | 1.03
U8A G9A U10C U11C C12G C13U | 1.07
U8A G9A U10C U11C C12G C13G | 1.13
U8A G9A U10G C12G | 1.16
U8A G9A U10G C12A | 1.2
U8A G9A U10G C12U | 1.5
U8A G9C U10A U11G C12U | 1.25
U8A G9C U10A U11G C12A | 1.06
U8A G9C U10A U11G C12G | 1.18
